From patent US20210388087A1 (Chugai, published 2021) come the findings set out here.

The chains are these.
B1: CE115HA000 Y58S one-arm antibody (antibody, human IgG1, kappa, L234A L235A, N297A, name in Kabat numbering)
heavy: QVQLVESGGGVVQPGRSLRLSCAASGFTFSNAWMHWVRQAPGKGLEWVAQIKAKSNNYATSYAESVKGRFTISRDDSKNSLYLQMNSLKTEDTAVYYCRYVHYGAYYGVDAWGQGTTVTVSSASTKGPSVFPLAPSSKSTSGGTAALGCLVKDYFPEPVTVSWNSGALTSGVHTFPAVLQSSGLYSLSSVVTVPSSSLGTQTYICNVNHKPSNTKVDKKVEPKSCDKTHTCPPCPAPEAAGGPSVFLFPPKPKDTLMISRTPEVTCVVVDVSHEDPEVKFNWYVDGVEVHNAKTKPREEQYASTYRVVSVLTVLHQDWLNGKEYKCKVSNKALPAPIEKTISKAKGQPREPQVYTLPPSRCELTKNQVSLSCAVKGFYPSDIAVEWESNGQPENNYKTTPPVLDSDGSFFLVSKLTVDKSRWQQGNVFSCSVMHEALHNHYTQKSLSLSPDYKDDDDK
chain: EPKSSDKTHTCPPCPAPELLGGPSVFLFPPKPKDTLMISRTPEVTCVVVDVSHEDPEVKFNWYVDGVEVHNAKTKPREEQYNSTYRVVSVLTVLHQDWLNGKEYKCKVSNKALPAPIEKTISKAKGQPREPQVCTLPPSRDELTKNQVSLWCLVKGFYPSDIAVEWESNGQPENNYKTTPPVLDSDGSFFLYSKLTVDKSRWQQGNVFSCSVMHEALHNRYTQKSLSLSP
light: DIVMTQSPLSLPVTPGEPASISCRSSQSLVHSNRNTYLHWYQQKPGQAPRLLIYKVSNRFSGVPDRFSGSGSGTDFTLKISRVEAEDVGVYYCGQGTQVPYTFGQGTKLEIKRTVAAPSVFIFPPSDEQLKSGTASVVCLLNNFYPREAKVQWKVDNALQSGNSQESVTEQDSKDSTYSLSSTLTLSKADYEKHKVYACEVTHQGLSSPVTKSFNRGEC
B2: CE115HA000 Y59D one-arm antibody (antibody, human IgG1, kappa, L234A L235A, N297A, name in Kabat numbering)
heavy: QVQLVESGGGVVQPGRSLRLSCAASGFTFSNAWMHWVRQAPGKGLEWVAQIKAKSNNYATYDAESVKGRFTISRDDSKNSLYLQMNSLKTEDTAVYYCRYVHYGAYYGVDAWGQGTTVTVSSASTKGPSVFPLAPSSKSTSGGTAALGCLVKDYFPEPVTVSWNSGALTSGVHTFPAVLQSSGLYSLSSVVTVPSSSLGTQTYICNVNHKPSNTKVDKKVEPKSCDKTHTCPPCPAPEAAGGPSVFLFPPKPKDTLMISRTPEVTCVVVDVSHEDPEVKFNWYVDGVEVHNAKTKPREEQYASTYRVVSVLTVLHQDWLNGKEYKCKVSNKALPAPIEKTISKAKGQPREPQVYTLPPSRCELTKNQVSLSCAVKGFYPSDIAVEWESNGQPENNYKTTPPVLDSDGSFFLVSKLTVDKSRWQQGNVFSCSVMHEALHNHYTQKSLSLSPDYKDDDDK
chain: EPKSSDKTHTCPPCPAPELLGGPSVFLFPPKPKDTLMISRTPEVTCVVVDVSHEDPEVKFNWYVDGVEVHNAKTKPREEQYNSTYRVVSVLTVLHQDWLNGKEYKCKVSNKALPAPIEKTISKAKGQPREPQVCTLPPSRDELTKNQVSLWCLVKGFYPSDIAVEWESNGQPENNYKTTPPVLDSDGSFFLYSKLTVDKSRWQQGNVFSCSVMHEALHNRYTQKSLSLSP
light: DIVMTQSPLSLPVTPGEPASISCRSSQSLVHSNRNTYLHWYQQKPGQAPRLLIYKVSNRFSGVPDRFSGSGSGTDFTLKISRVEAEDVGVYYCGQGTQVPYTFGQGTKLEIKRTVAAPSVFIFPPSDEQLKSGTASVVCLLNNFYPREAKVQWKVDNALQSGNSQESVTEQDSKDSTYSLSSTLTLSKADYEKHKVYACEVTHQGLSSPVTKSFNRGEC
B3: CE115HA000 Y97A one-arm antibody (antibody, human IgG1, kappa, L234A L235A, N297A, name in Kabat numbering)
heavy: QVQLVESGGGVVQPGRSLRLSCAASGFTFSNAWMHWVRQAPGKGLEWVAQIKAKSNNYATYYAESVKGRFTISRDDSKNSLYLQMNSLKTEDTAVYYCRYVHAGAYYGVDAWGQGTTVTVSSASTKGPSVFPLAPSSKSTSGGTAALGCLVKDYFPEPVTVSWNSGALTSGVHTFPAVLQSSGLYSLSSVVTVPSSSLGTQTYICNVNHKPSNTKVDKKVEPKSCDKTHTCPPCPAPEAAGGPSVFLFPPKPKDTLMISRTPEVTCVVVDVSHEDPEVKFNWYVDGVEVHNAKTKPREEQYASTYRVVSVLTVLHQDWLNGKEYKCKVSNKALPAPIEKTISKAKGQPREPQVYTLPPSRCELTKNQVSLSCAVKGFYPSDIAVEWESNGQPENNYKTTPPVLDSDGSFFLVSKLTVDKSRWQQGNVFSCSVMHEALHNHYTQKSLSLSPDYKDDDDK
chain: EPKSSDKTHTCPPCPAPELLGGPSVFLFPPKPKDTLMISRTPEVTCVVVDVSHEDPEVKFNWYVDGVEVHNAKTKPREEQYNSTYRVVSVLTVLHQDWLNGKEYKCKVSNKALPAPIEKTISKAKGQPREPQVCTLPPSRDELTKNQVSLWCLVKGFYPSDIAVEWESNGQPENNYKTTPPVLDSDGSFFLYSKLTVDKSRWQQGNVFSCSVMHEALHNRYTQKSLSLSP
light: DIVMTQSPLSLPVTPGEPASISCRSSQSLVHSNRNTYLHWYQQKPGQAPRLLIYKVSNRFSGVPDRFSGSGSGTDFTLKISRVEAEDVGVYYCGQGTQVPYTFGQGTKLEIKRTVAAPSVFIFPPSDEQLKSGTASVVCLLNNFYPREAKVQWKVDNALQSGNSQESVTEQDSKDSTYSLSSTLTLSKADYEKHKVYACEVTHQGLSSPVTKSFNRGEC
B4: CE115HA000 Y59S one-arm antibody (antibody, human IgG1, kappa, L234A L235A, N297A, name in Kabat numbering)
heavy: QVQLVESGGGVVQPGRSLRLSCAASGFTFSNAWMHWVRQAPGKGLEWVAQIKAKSNNYATYSAESVKGRFTISRDDSKNSLYLQMNSLKTEDTAVYYCRYVHYGAYYGVDAWGQGTTVTVSSASTKGPSVFPLAPSSKSTSGGTAALGCLVKDYFPEPVTVSWNSGALTSGVHTFPAVLQSSGLYSLSSVVTVPSSSLGTQTYICNVNHKPSNTKVDKKVEPKSCDKTHTCPPCPAPEAAGGPSVFLFPPKPKDTLMISRTPEVTCVVVDVSHEDPEVKFNWYVDGVEVHNAKTKPREEQYASTYRVVSVLTVLHQDWLNGKEYKCKVSNKALPAPIEKTISKAKGQPREPQVYTLPPSRCELTKNQVSLSCAVKGFYPSDIAVEWESNGQPENNYKTTPPVLDSDGSFFLVSKLTVDKSRWQQGNVFSCSVMHEALHNHYTQKSLSLSPDYKDDDDK
chain: EPKSSDKTHTCPPCPAPELLGGPSVFLFPPKPKDTLMISRTPEVTCVVVDVSHEDPEVKFNWYVDGVEVHNAKTKPREEQYNSTYRVVSVLTVLHQDWLNGKEYKCKVSNKALPAPIEKTISKAKGQPREPQVCTLPPSRDELTKNQVSLWCLVKGFYPSDIAVEWESNGQPENNYKTTPPVLDSDGSFFLYSKLTVDKSRWQQGNVFSCSVMHEALHNRYTQKSLSLSP
light: DIVMTQSPLSLPVTPGEPASISCRSSQSLVHSNRNTYLHWYQQKPGQAPRLLIYKVSNRFSGVPDRFSGSGSGTDFTLKISRVEAEDVGVYYCGQGTQVPYTFGQGTKLEIKRTVAAPSVFIFPPSDEQLKSGTASVVCLLNNFYPREAKVQWKVDNALQSGNSQESVTEQDSKDSTYSLSSTLTLSKADYEKHKVYACEVTHQGLSSPVTKSFNRGEC
B5: CE115HA000 Y59E one-arm antibody (antibody, human IgG1, kappa, L234A L235A, N297A, name in Kabat numbering)
heavy: QVQLVESGGGVVQPGRSLRLSCAASGFTFSNAWMHWVRQAPGKGLEWVAQIKAKSNNYATYEAESVKGRFTISRDDSKNSLYLQMNSLKTEDTAVYYCRYVHYGAYYGVDAWGQGTTVTVSSASTKGPSVFPLAPSSKSTSGGTAALGCLVKDYFPEPVTVSWNSGALTSGVHTFPAVLQSSGLYSLSSVVTVPSSSLGTQTYICNVNHKPSNTKVDKKVEPKSCDKTHTCPPCPAPEAAGGPSVFLFPPKPKDTLMISRTPEVTCVVVDVSHEDPEVKFNWYVDGVEVHNAKTKPREEQYASTYRVVSVLTVLHQDWLNGKEYKCKVSNKALPAPIEKTISKAKGQPREPQVYTLPPSRCELTKNQVSLSCAVKGFYPSDIAVEWESNGQPENNYKTTPPVLDSDGSFFLVSKLTVDKSRWQQGNVFSCSVMHEALHNHYTQKSLSLSPDYKDDDDK
chain: EPKSSDKTHTCPPCPAPELLGGPSVFLFPPKPKDTLMISRTPEVTCVVVDVSHEDPEVKFNWYVDGVEVHNAKTKPREEQYNSTYRVVSVLTVLHQDWLNGKEYKCKVSNKALPAPIEKTISKAKGQPREPQVCTLPPSRDELTKNQVSLWCLVKGFYPSDIAVEWESNGQPENNYKTTPPVLDSDGSFFLYSKLTVDKSRWQQGNVFSCSVMHEALHNRYTQKSLSLSP
light: DIVMTQSPLSLPVTPGEPASISCRSSQSLVHSNRNTYLHWYQQKPGQAPRLLIYKVSNRFSGVPDRFSGSGSGTDFTLKISRVEAEDVGVYYCGQGTQVPYTFGQGTKLEIKRTVAAPSVFIFPPSDEQLKSGTASVVCLLNNFYPREAKVQWKVDNALQSGNSQESVTEQDSKDSTYSLSSTLTLSKADYEKHKVYACEVTHQGLSSPVTKSFNRGEC
B6: CE115HA000 Y59A one-arm antibody (antibody, human IgG1, kappa, L234A L235A, N297A, name in Kabat numbering)
heavy: QVQLVESGGGVVQPGRSLRLSCAASGFTFSNAWMHWVRQAPGKGLEWVAQIKAKSNNYATYAAESVKGRFTISRDDSKNSLYLQMNSLKTEDTAVYYCRYVHYGAYYGVDAWGQGTTVTVSSASTKGPSVFPLAPSSKSTSGGTAALGCLVKDYFPEPVTVSWNSGALTSGVHTFPAVLQSSGLYSLSSVVTVPSSSLGTQTYICNVNHKPSNTKVDKKVEPKSCDKTHTCPPCPAPEAAGGPSVFLFPPKPKDTLMISRTPEVTCVVVDVSHEDPEVKFNWYVDGVEVHNAKTKPREEQYASTYRVVSVLTVLHQDWLNGKEYKCKVSNKALPAPIEKTISKAKGQPREPQVYTLPPSRCELTKNQVSLSCAVKGFYPSDIAVEWESNGQPENNYKTTPPVLDSDGSFFLVSKLTVDKSRWQQGNVFSCSVMHEALHNHYTQKSLSLSPDYKDDDDK
chain: EPKSSDKTHTCPPCPAPELLGGPSVFLFPPKPKDTLMISRTPEVTCVVVDVSHEDPEVKFNWYVDGVEVHNAKTKPREEQYNSTYRVVSVLTVLHQDWLNGKEYKCKVSNKALPAPIEKTISKAKGQPREPQVCTLPPSRDELTKNQVSLWCLVKGFYPSDIAVEWESNGQPENNYKTTPPVLDSDGSFFLYSKLTVDKSRWQQGNVFSCSVMHEALHNRYTQKSLSLSP
light: DIVMTQSPLSLPVTPGEPASISCRSSQSLVHSNRNTYLHWYQQKPGQAPRLLIYKVSNRFSGVPDRFSGSGSGTDFTLKISRVEAEDVGVYYCGQGTQVPYTFGQGTKLEIKRTVAAPSVFIFPPSDEQLKSGTASVVCLLNNFYPREAKVQWKVDNALQSGNSQESVTEQDSKDSTYSLSSTLTLSKADYEKHKVYACEVTHQGLSSPVTKSFNRGEC

For this experiment, the target named is T1, CD3 epsilon homodimer protein (UniProt P07766 23-126).
T1 construct: immobilized on Sensor chip CM4 by amine coupling; also called CD3 (CD3 epsilon)
T1 sequence (P07766 23-126): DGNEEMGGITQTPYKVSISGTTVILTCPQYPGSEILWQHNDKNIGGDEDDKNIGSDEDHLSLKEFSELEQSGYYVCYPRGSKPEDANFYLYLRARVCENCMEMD
In words: SPR (Biacore T200), CD3 epsilon homodimer on CM4 chip, one-arm antibody as analyte, 25 C.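 Also: homodimer attached to the sensor surface via amine coupling, HBS-EP+ used as running buffer during binding runs.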 In general terms: Surface plasmon resonance follows binding to a sensor surface in real time, without labels.
For the molecule B1, the “ratio of amounts bound (altered form / CE115HA000)” value came out at 0.18.

As for B2, the “ratio of amounts bound (altered form / CE115HA000)” value was 0.7.

In the case of B3, the “ratio of amounts bound (altered form / CE115HA000)” value is 0.16.

For B4, the “ratio of amounts bound (altered form / CE115HA000)” value worked out at 0.94.

As to B5, the “ratio of amounts bound (altered form / CE115HA000)” value came out at 0.66.

Take B6: the “ratio of amounts bound (altered form / CE115HA000)” value was determined as 0.85.
